Source: USRE46585 (LABORATOIRE FRANCAIS DU FRACTIONNEMENT ET DES …, dated 2017)
Residue numbers refer to the chain shown, from its start. Blank lines part the entries; values can stand above or below the binder they belong to.

How the values were obtained:
FcRn-p3 fusion protein [1] = target: T1, FcRn-p3 fusion protein (human, UniProt P55899 24-297; P61769 21-119); experiment: phage ELISA pH6
T1 construct: baculovirus expressed; coated on ELISA wells; not shown: amino terminal part of bacteriophage p3 protein and CVDE protein

FcRn-p3 fusion protein [2] = target: T1, FcRn-p3 fusion protein; experiment: ELISA pH6, soluble Fc on coated FcRn-p3

Ratio/Fc-WT (FcRn-p3 fusion protein [1]): 3.7 fold
B1: B6A_20 (other)
chain: CPPCPAPELLGGPSVFLFPPKPKDTLMISRTPEVTCVVVDVSHEDPEVKFNWYVDGVEVHNAKTKPREEQYNSTYRVVSVLTVLHQDWLNGKEYTCKVSNKALPAPIEKTISKAKGQPREPQVYTLPPSRDELTKNQVSLTCLVKGFYPSDIAVEWESNGQPENNYKTTPPVLDSDGSFFLYSKLTVDKSRWQQGNVFSCSVMHEALHYHYTQRSLSLSPGE
notes: EU numbering

Ratio/Fc-WT (FcRn-p3 fusion protein [1]): 4.3 fold
B4: SSA_20 (other)
chain: B1 chain with P5Q, F16Y, K21R, D45E, T95K, Y209N, R214K, E222K
notes: EU numbering; also called S5A_20 (probable reading)

Ratio/Fc-WT (FcRn-p3 fusion protein [1]): 4.3 fold
B5: B6A_41 (other)
chain: B1 chain with T95K, Q213R, R214K
notes: EU numbering

Ratio/Fc-WT (FcRn-p3 fusion protein [1]): 6.3 fold
B10: L6B_31 (other)
chain: B1 chain with P5T, V80A, T82A, T95K, A153V, L173P, Y209S, R214K, E222K
notes: EU numbering

EC50 (FcRn-p3 fusion protein [2]): 2.6 nM
B14: C6A_60 (soluble recombinant Fc polypeptide) (other)
chain: B1 chain with P5S, N90D, T95K, M203L, R214K, E222K
notes: EU numbering; E. coli periplasmic expression; not shown: C-terminal 6xHis tag and V5 tag

Ratio/Fc-WT (FcRn-p3 fusion protein [1]): 4.4 fold
B17: S6A_48 (other)
chain: B1 chain with T95K, R130Q, K167E, T168N, S201T, R214K, E222K
notes: EU numbering

Ratio/Fc-WT (FcRn-p3 fusion protein [1]): 5 fold
B20: B6A_31 (other)
chain: B1 chain with T95K, S150G, M203L, H208P, Y209N, R214K, E222K
notes: EU numbering

Continued, binder first:

B2: S4A_42 (other)
chain: B1 chain with V39A, T95K, R214K, G221A, E222K
notes: EU numbering
Ratio/Fc-WT (FcRn-p3 fusion protein [1]): 4.2 fold

B3: L4A_28 (other)
chain: B1 chain with T95K, M203L, Y209S, Q213R, R214K, P220S, E222K
notes: EU numbering
Ratio/Fc-WT (FcRn-p3 fusion protein [1]): 5.2 fold

B6: S4A_24 (other)
chain: B1 chain with V39E, R76C, T95K, A153V, E157G, Y209N, R214K, E222K
notes: EU numbering
Ratio/Fc-WT (FcRn-p3 fusion protein [1]): 5.4 fold

B7: S4A_05 (other)
chain: B1 chain with T95K, A153V, D176A, R214K, E222K
notes: EU numbering
Ratio/Fc-WT (FcRn-p3 fusion protein [1]): 3.7 fold

B8: L3A_39 (other)
chain: B1 chain with T95K, S150G, P170S, Y209S, R214K, E222K
notes: EU numbering
Ratio/Fc-WT (FcRn-p3 fusion protein [1]): 3.2 fold

B9: S4A_14 (other)
chain: B1 chain with N51S, T95K, A153V, Y209S, R214K, E222K
notes: EU numbering
Ratio/Fc-WT (FcRn-p3 fusion protein [1]): 5.9 fold

B11: S5A_43 (other)
chain: B1 chain with P5S, V59L, T95K, A153V, Y209N, R214K, E222K
notes: EU numbering
Ratio/Fc-WT (FcRn-p3 fusion protein [1]): 5.7 fold

B12: S5A_07 (other)
chain: B1 chain with T95K, A153V, N196T, Y209S, R214K, E222K
notes: EU numbering
Ratio/Fc-WT (FcRn-p3 fusion protein [1]): 5.1 fold

B13: S4A_07 (other)
chain: B1 chain with T82P, T95K, N164T, R214K, E222K
notes: EU numbering
Ratio/Fc-WT (FcRn-p3 fusion protein [1]): 6.6 fold

B15: S5A_26 (other)
chain: B1 chain with Q86R, T95K, K109R, Q117E, R214K, E222K
notes: EU numbering
Ratio/Fc-WT (FcRn-p3 fusion protein [1]): 7.9 fold

B16: S4A_17 (other)
chain: B1 chain with V77A, T95K, N164T, Y209S, R214K, E222K
notes: EU numbering
Ratio/Fc-WT (FcRn-p3 fusion protein [1]): 3.8 fold

B18: S4A_25 (other)
chain: B1 chain with D40G, T95K, S183T, R214K, S219F, E222K
notes: EU numbering
Ratio/Fc-WT (FcRn-p3 fusion protein [1]): 4.2 fold

B19: S4A_36 (other)
chain: B1 chain with P5Q, V39A, T95K, P127S, A153V, Y209N, R214K, E222K
notes: EU numbering
Ratio/Fc-WT (FcRn-p3 fusion protein [1]): 4.5 fold

B21: T5A_74 (soluble recombinant Fc polypeptide) (other)
chain: B1 chain with N90D, T95K, A105V, N136D, A153V, R214K, E222K
notes: as for B14
EC50 (FcRn-p3 fusion protein [2]): 5.5 nM

B22: S3A_06 (other)
chain: B1 chain with P5T, A6T, T95K, A153V, Y209N, R214K, E222K
notes: EU numbering
Ratio/Fc-WT (FcRn-p3 fusion protein [1]): 3.6 fold
